± gives the standard error. Fewer inactive variants are shown than the library holds.
B1: glmS ribozyme (parent)
chain: AUAAAAGCGCCAGAACUACAGAAAUGUAGUUGACGAGGAGGAGGUUUAUCGAAUUUUCGGCGGAUGCCUCCAAA

What was measured:
Settings in all cases: with glucosamine-6-phosphate
glucosamine-6-phosphate [1] = variants of: B1; test: self-cleavage kobs at 160 uM GlcN6P; higher = faster cleavage; RNA array
Method in brief: (§1)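 Barcoded ribozyme variants on sequenced MiSeq chips were transcribed in situ by E. coli RNA polymerase and followed at 37 °C through a hybridised Cy3 probe. Glucosamine-6-phosphate at 40 μM to 10 mM in HEPES/KCl/Mg(OAc)2 buffer was flowed in, and tiles were imaged over ~14 h. Signals were normalised to baseline and to non-cleaving reference variants, and per-tile medians were fit to one- or two-exponential decays to give kobs. Weighted Michaelis–Menten fits across concentrations gave kcat and KM.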

glucosamine-6-phosphate [2] = variants of: B1; test: self-cleavage kobs at 640 uM GlcN6P; higher = faster cleavage; RNA array
Method in brief: as §1

glucosamine-6-phosphate [3] = variants of: B1; test: self-cleavage kobs at 2500 uM GlcN6P; higher = faster cleavage; RNA array
Method in brief: as §1

glucosamine-6-phosphate [4] = variants of: B1; test: self-cleavage kobs at 10000 uM GlcN6P; higher = faster cleavage; RNA array
Method in brief: as §1

Variant | self-cleavage kobs at 160 uM GlcN6P (glucosamine-6-phosphate [1]) | self-cleavage kobs at 640 uM GlcN6P (glucosamine-6-phosphate [2]) | self-cleavage kobs at 2500 uM GlcN6P (glucosamine-6-phosphate [3]) | self-cleavage kobs at 10000 uM GlcN6P (glucosamine-6-phosphate [4])
G7U A14U U55C C70U | < 1e-05 s⁻¹ |  |  | 
A15U A36C G41U C71G | < 1e-05 s⁻¹ | < 1e-05 s⁻¹ |  | 
G7U U45A | < 1e-05 s⁻¹ |  | < 1e-05 s⁻¹ | 
U31G A52C | < 1e-05 s⁻¹ | < 1e-05 s⁻¹ |  | 
U46A U65G | 0.000293 ± 6.7e-05 s⁻¹ | 0.000975 ± 0.00016 s⁻¹ | 0.00122 ± 0.00021 s⁻¹ | 0.00301 ± 0.00058 s⁻¹
U30A G32A A39G | 6.92e-05 ± 2.4e-05 s⁻¹ | 0.000602 ± 0.00013 s⁻¹ | 0.000618 ± 0.0002 s⁻¹ | 0.00306 ± 0.00073 s⁻¹
C34A G59U G60A G63U |  | < 1e-05 s⁻¹ |  | 
A12U U45G U46G | 0.000419 ± 0.00015 s⁻¹ |  | 0.00499 ± 0.0017 s⁻¹ | 
G9U G40C C50G |  | < 1e-05 s⁻¹ | < 1e-05 s⁻¹ | 
G41A U47A G62C | < 1e-05 s⁻¹ | < 1e-05 s⁻¹ | < 1e-05 s⁻¹ | 
G38U C68A | 7.69e-05 ± 2.1e-05 s⁻¹ | 0.000459 ± 0.00019 s⁻¹ | 0.000238 ± 9.6e-05 s⁻¹ | 
A42C G63U | < 1e-05 s⁻¹ |  |  | < 1e-05 s⁻¹
A39U G59U | < 1e-05 s⁻¹ | < 1e-05 s⁻¹ |  | 3.61e-05 ± 1.4e-05 s⁻¹
C11A C16U G44U A53G C71G | < 1e-05 s⁻¹ | < 1e-05 s⁻¹ |  | 
A12G G51U G66A | < 1e-05 s⁻¹ |  | < 1e-05 s⁻¹ | 
G7U G13C G35U G37A | < 1e-05 s⁻¹ |  | < 1e-05 s⁻¹ | 
U30G G35U G44U U46G U65C | < 1e-05 s⁻¹ | < 1e-05 s⁻¹ | < 1e-05 s⁻¹ | 
A12U A36C C68G |  | 0.000173 ± 5.8e-05 s⁻¹ |  | 
C16U G51C | < 1e-05 s⁻¹ | < 1e-05 s⁻¹ | < 1e-05 s⁻¹ | 
G13C U31G G43U | < 1e-05 s⁻¹ |  | < 1e-05 s⁻¹ | 
A12U U30A U45A A53U G62C | < 1e-05 s⁻¹ |  | < 1e-05 s⁻¹ | 
A14U G29A A52C C61U C68A C71G | 0.000123 ± 3.3e-05 s⁻¹ | 9.79e-05 ± 2.9e-05 s⁻¹ | 0.00014 ± 5e-05 s⁻¹ | 
G9U C11U G38C | < 1e-05 s⁻¹ | < 1e-05 s⁻¹ | < 1e-05 s⁻¹ | 
C34U G40U C71U | < 1e-05 s⁻¹ |  | < 1e-05 s⁻¹ | 
U45A C67G C68A | 7.91e-05 ± 1.9e-05 s⁻¹ | 0.000177 ± 4.1e-05 s⁻¹ | 0.000173 ± 4.7e-05 s⁻¹ | 
A6G C50U U54C | < 1e-05 s⁻¹ | < 1e-05 s⁻¹ | < 1e-05 s⁻¹ | 

Source: the supplement of paper PMC7125110
